Here are results for 1 substance from patent publication US20180236028.

This data set deals with Reelin of primary cortical neurons (endogenous, cellular and supernatant fractions).

With MMP-9 (active; Calbiochem, PF140), the “Reelin processing in primary neurons, Western blot” value is “application of MMP-9 to primary neurons led to a specific accumulation of the 180 kDa fragment in cells and MMP-9 inhibition for 24 hours led to a dramatic increase in full-length cellular Reelin and decrease in cellular 180 kDa Reelin”.
